# Publication PMC5962637, “Simultaneous cell disruption and semi-quantitative activity assays for high-throughput screening of thermostable L-asparaginases” (Scientific Reports, 2018)
# Substrate: NC(=O)C[C@H](N)C(=O)O
# Assay: ammonia release with Nessler's reagent, A450; Michaelis-Menten plot
# Type: biochemical, Pyrococcus yayanosii
# Conditions: 50 mM Tris-HCl pH 8.0, 95 °C, substrate range 0.05-2.0 mM
protein,measurement,value
"P. yayanosii CH1 L-asparaginase (pyasnase) (Pyrococcus yayanosii CH1) (protein, C-terminal His-tag (in primer R1); codon-optimised synthetic gene, pMA5, Bacillus subtilis 168; homodimer (homology model)) MRLLILGMGGTIASVPSEEGYESSLSVEEILRLAGLELKWEVEARDLLNIDSTLIQPEDWVLLAETVFEAFEEFDGVVITHGTDTLAYTASMLSFMVRNPPVPIVLTGAMRPITEPGSDAPRNLWTALRFAIEGVPGVYVAFMDKVMLGVRVSKVRAVGLNAFQSINYPDIAYVKGNRIHWNAKPPKLEGEPVLDTRHEPRVLVLRLVPGMEGDVLEAALELGYRGIVLEGYGVGGIPYRGRDLLDVVRRVATEIPVVMTTQTLYDGVDLTKYKVGRKALEVGVIPAGDMTKEATITKLMWILGHTRDVGEVRRLMLTNMVGEIGKSA",Km,6.5 mM
